Results as given in paper PMC5579238, “MAPK1 of Leishmania donovani interacts and phosphorylates HSP70 and HSP90 subunits of foldosome complex” (Scientific Reports, 2017).
Where a name gives a salt, the structure may show the parent alone.

Columns and labels:
LdMAPK1 = target: T1, LdMAPK1 (Leishmania donovani, UniProt E2CWC1); assay: Kinase-Glo Plus ATP consumption assay with recombinant HSP90 or HSP70 as substrate; Dixon plot; type: biochemical
T1 construct: GST fused rLdMAPK1 (pGEX-KG-LdMAPK1), expressed in E. coli
T1 sequence (E2CWC1 1-358): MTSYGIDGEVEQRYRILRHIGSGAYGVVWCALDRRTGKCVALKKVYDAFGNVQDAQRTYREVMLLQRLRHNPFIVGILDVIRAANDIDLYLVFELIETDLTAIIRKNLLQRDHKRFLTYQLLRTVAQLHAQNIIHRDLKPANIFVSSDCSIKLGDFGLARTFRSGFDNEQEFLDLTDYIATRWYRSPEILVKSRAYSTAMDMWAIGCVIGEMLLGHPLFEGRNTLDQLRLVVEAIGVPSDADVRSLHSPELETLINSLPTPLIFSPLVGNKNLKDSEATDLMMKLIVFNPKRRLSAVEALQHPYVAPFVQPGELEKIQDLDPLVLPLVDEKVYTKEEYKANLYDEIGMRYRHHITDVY

[1] = target: Leishmania donovani MAPK1 (L. donovani (endogenous in promastigotes))

Sequence of HSP70 (P17804 whole entry, the tested form may be a part): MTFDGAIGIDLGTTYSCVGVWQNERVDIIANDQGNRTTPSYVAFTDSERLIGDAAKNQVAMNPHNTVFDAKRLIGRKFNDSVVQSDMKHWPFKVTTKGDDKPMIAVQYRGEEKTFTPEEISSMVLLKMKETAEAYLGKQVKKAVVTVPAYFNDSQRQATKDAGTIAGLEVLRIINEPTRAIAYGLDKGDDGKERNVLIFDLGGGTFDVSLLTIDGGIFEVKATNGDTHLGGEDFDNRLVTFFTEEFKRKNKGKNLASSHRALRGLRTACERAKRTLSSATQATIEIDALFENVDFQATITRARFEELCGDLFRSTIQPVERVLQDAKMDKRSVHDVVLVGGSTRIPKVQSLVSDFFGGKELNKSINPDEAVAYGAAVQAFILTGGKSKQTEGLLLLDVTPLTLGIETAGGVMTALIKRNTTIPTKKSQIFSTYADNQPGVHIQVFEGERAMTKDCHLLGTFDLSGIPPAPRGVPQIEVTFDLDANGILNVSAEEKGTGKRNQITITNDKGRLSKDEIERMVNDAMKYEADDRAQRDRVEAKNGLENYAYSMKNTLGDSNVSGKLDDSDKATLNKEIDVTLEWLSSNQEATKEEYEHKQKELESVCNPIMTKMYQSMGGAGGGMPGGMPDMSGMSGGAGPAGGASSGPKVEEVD

## CCOc1ccc(C=C2SC(=O)N(CCN)C2=O)cc1 [AMTZD, 3-(2-aminoethyl)-5-([4-ethoxyphenyl]methylene)-2,4-thiazolidinedione HCl]
LdMAPK1
  Ki: 2720 ± 140 nM

## HSP70 (from UniProt P17804 1-653) (natural protein)
[1]
  Km of the in vitro kinase assay (ATP consumption, Kinase-Glo) of recombinant GST-LdMAPK1 with recombinant His-tagged HSP70 as substrate: 0.0176 µM

## HSP90 (natural protein)
[1]
  Km of the in vitro kinase assay (ATP consumption, Kinase-Glo) of recombinant GST-LdMAPK1 with recombinant His-tagged HSP90 as substrate: 0.0167 µM
